Measurements from PMC3050670.

How the values were obtained:
[1] = target: HIV-1 CA A14C/E45C (HIV-1 (human immunodeficiency virus type 1)); assay: cross-linking
[2] = target: HIV-1 CA A14C/E45C/W184A/M185A (HIV-1 (human immunodeficiency virus type 1)); assay: SEC
[3] = target: HIV-1 CA A42C/T54C (HIV-1 (human immunodeficiency virus type 1)); assay: cross-linking
[4] = target: HIV-1 CA N21C/A22C (HIV-1 (human immunodeficiency virus type 1)); assay: cross-linking

HIV-1 CA A14C/E45C (natural protein)
crosslinking efficiency [1]: > 90%
stoichiometry N [1]: 6

HIV-1 CA A14C/E45C/W184A/M185A (natural protein)
stoichiometry N [2]: 6

HIV-1 CA A42C/T54C (natural protein)
crosslinked 6-mer band, share of the total protein [3]: 30%
maximal crosslinking [3]: 50%
stoichiometry N [3]: 6

HIV-1 CA N21C/A22C (natural protein)
stoichiometry N [4]: 5
